# Experimental data published in patent US20160215045A1 (Eli Lilly, published 2016).
# B1: parental anti-VEGFA antibody of Compound A (antibody, human IgG4 S228P, kappa, F234A L235A, V domains shown)
# VH: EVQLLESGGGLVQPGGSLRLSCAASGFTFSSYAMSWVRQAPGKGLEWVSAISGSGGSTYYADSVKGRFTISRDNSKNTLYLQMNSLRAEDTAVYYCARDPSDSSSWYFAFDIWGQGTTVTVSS
# VL: DIVMTQSPATLSVSPGQRATLSCRASQNIRNNLAWYQQKRGQAPRLLIYGASTRATGIPDRFSGSGSGADFTLTISKLEPEDFAVYYCQQYGSSPRTFGQGTKVDIKR
# notes: also called Parental VEGFA Ab; parental VEGFA antibody
# Key:
# human VEGFA165 [1] = target: T1, human VEGFA165 (human, UniProt P15692 207-395); assay: KinExA kinetic exclusion assay at 37 C, solution equilibrium with hVEGFA165
# T1 construct: Recombinant soluble protein; also called hVEGFA165; rhVEGFA
# Text: (§1) A KinExA 3200 instrument is used to measure binding kinetics to human VEGFA165. Briefly, human VEGFA165 is covalently coupled to NHS-activated sepharose beads (GE Healthcare #17-0906-01) and the binding of free Mab to the conjugated beads is detected on the KinExA 3200. […] (depending on the temperature analyzed) in Casein Blocking Buffer (ThermoFisher #37528). […] It follows that the relative intensity of signal generated in these steps is proportional to the degree of free/uncomplexed compound present in each solution tested. The resultant composite set of fluorescent intensities is plotted as a function of the concentration of human VEGFA165 present in each discrete sample and fit using the N-curve analysis software (KinExA) to a standard two state binding model to determine KD for the given MOI. Statistical confidence is reported by calculation of the 95% confidence intervals.
# human VEGFA165 [2] = target: T1, human VEGFA165; assay: cell-based or functional assay
# human VEGFA165 [3] = target: T1, human VEGFA165; assay: Biacore SPR at 25 C; antibody captured on Protein A, hVEGFA165 as analyte; value called an upper limit
# Procedure: (§2) Immobilization of soluble Protein A (Calbiochem #539202) on a CM4 (GE Healthcare #BR-1005-34) or CMS (GE Healthcare #BR-1000-99) is prepared using EDC/NHS amine coupling method (GE Healthcare #BR-1000-50). Briefly, the surfaces of all four flow cells is activated by injecting a 1:1 mixture of EDC/NHS for seven minutes at 10 μL/min After which, soluble protein A is diluted to 50-100 μg/mL in 10 mM acetate buffer, pH 4.5, and immobilized for seven minutes onto flow cell (Fc) 2, 3 or 4 at a flow rate of 10 μL/min. Unreacted sites still remaining on the chip surface are blocked with a seven minute injection of ethanolamine at 10 μL/min Running buffer is HBS-EP+ (GE Healthcare #BR-1006-69) with addition of 100 mM NaCl. Compound samples are prepared at 1 μg/mL by dilution into running buffer. […] Resultant data is processed using standard double-referencing and fit to a 1:1 binding model using Biacore 2000 Evaluation software, version 4.1, to determine the association rate (kₒₙ, M⁻¹s⁻¹ units), dissociation rate (koff, s⁻¹ units). Calculation of the equilibrium dissociation constant (KD) is calculated from the following relationship, KD=koff/kₒₙ, and is presented in molar units.
# human VEGFA165 [4] = target: T1, human VEGFA165; assay: KinExA kinetic exclusion assay at 25 C, solution equilibrium with hVEGFA165
# Text: as §1
# human VEGFA165 [5] = target: T1, human VEGFA165; assay: Biacore SPR at 25 C; antibody captured on Protein A, hVEGFA165 as analyte; 1:1 fit; off-rate too slow to quantitate accurately
# Procedure: as §2
# human VEGFA165 [6] = target: T1, human VEGFA165; assay: Biacore SPR at 25 C; antibody captured on Protein A, hVEGFA165 as analyte; 1:1 fit
# Procedure: as §2
# T1 sequence (P15692 other isoform, or with tags, fused parts or gaps): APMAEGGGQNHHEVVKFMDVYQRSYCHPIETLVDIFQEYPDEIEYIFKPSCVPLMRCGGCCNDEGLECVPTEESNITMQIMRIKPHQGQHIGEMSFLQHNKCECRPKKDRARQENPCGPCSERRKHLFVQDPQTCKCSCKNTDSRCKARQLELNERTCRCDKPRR
binder,measurement,setting,value
B1,Kd,human VEGFA165 [1],183 pM
same,IC50 for inhibition of VEGFA165 induced proliferation of ECFC (3H thymidine),human VEGFA165 [2],1380 pM
same,IC50 for inhibition of VEGFA induced cord formation in ADSC/ECFC co-culture (total tube area),human VEGFA165 [2],1570 pM
same,Kd,human VEGFA165 [3],≤ 13.2 pM
same,Kd,human VEGFA165 [4],27 pM
same,koff,human VEGFA165 [5],3.9e-05 s⁻¹
same,kon,human VEGFA165 [6],2.93e+06 M⁻¹ s⁻¹
